Results: PMC2796168

What was measured:
[1] = target: non-glycosylated Evasin-1 (Rhipicephalus sanguineus) (UniProt P0C8E7); assay: crystal structure; complex of non-glycosylated Evasin-1 and ΔAla1-CCL3 (A10T), formed overnight at 4°C at a molar ratio of 1:2.5, captured on Ni-NTA; crystals in 24% PEG 3350, 0.2 M ammonium sulphate, 0.1 M HEPES pH 8.1; 1.9 Å
CCL3 (Homo sapiens) = CCL3 (Homo sapiens) (UniProt P10147); conditions: cited from earlier work
CCL18 (Homo sapiens) = CCL18 (Homo sapiens) (UniProt P55774); conditions: cited from earlier work
CCL4 (Homo sapiens) = CCL4 (Homo sapiens) (UniProt P13236); conditions: cited from earlier work
Chain of CCL4 (Homo sapiens) (P13236 24-92): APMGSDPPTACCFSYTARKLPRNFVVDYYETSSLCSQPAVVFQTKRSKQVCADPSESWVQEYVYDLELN

Chain of Evasin-1 (P0C8E7 21-114): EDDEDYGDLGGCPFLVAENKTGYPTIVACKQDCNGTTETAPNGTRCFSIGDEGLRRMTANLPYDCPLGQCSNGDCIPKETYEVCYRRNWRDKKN
Chain of CCL3 (Homo sapiens) (P10147 24-92): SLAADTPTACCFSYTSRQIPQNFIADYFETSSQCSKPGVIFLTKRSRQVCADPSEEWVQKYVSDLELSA
Chain of non-glycosylated Evasin-1 (Rhipicephalus sanguineus) (P0C8E7 21-114): as the sequence (P0C8E7 21-114) above
Chain of CCL18 (Homo sapiens) (P55774 24-89): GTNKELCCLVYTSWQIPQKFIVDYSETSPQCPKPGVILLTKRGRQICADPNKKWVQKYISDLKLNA

| Substance | stoichiometry N [1] | Kd (CCL3 (Homo sapiens)) [nM] | Kd (CCL18 (Homo sapiens)) [nM] | Kd (CCL4 (Homo sapiens)) [nM] |
| --- | --- | --- | --- | --- |
| ΔAla1-CCL3 (A10T) (ligand) | 1 | – | – | – |
| Evasin-1 (from UniProt P0C8E7) | – | 0.16 | 3.2 | 0.81 |
